Measurements as given in patent US20210100886A1, “WT1 CANCER ANTIGEN PEPTIDES AND PEPTIDE CONJUGATES COMPRISING THE PEPTIDES” (SUMITOMO DAINIPPON PHARMA CO., LTD., priority 2017, published 2021).
Where no end group is shown, it is not given here.

B1: peptide SCYTWNQMNL (SEQ ID NO: 63) (peptide)
peptide: SCYTWNQMNL
modifications: also: TFA salt
B2: peptide KCYTWNQMNL (SEQ ID NO: 36) (peptide)
peptide: KCYTWNQMNL
modifications: also: TFA salt
B3: peptide YCYTWNQMNL (SEQ ID NO: 40) (peptide)
peptide: YCYTWNQMNL
modifications: also: TFA salt
B4: peptide CCYTWNQMNL (SEQ ID NO: 10) (peptide)
peptide: CCYTWNQMNL
modifications: cysteine pairing not given here; also: TFA salt
B5: peptide ACYTWNQMNL (SEQ ID NO: 55) (peptide)
peptide: ACYTWNQMNL
modifications: also: TFA salt
B6: peptide NCYTWNQMNL (SEQ ID NO: 61) (peptide)
peptide: NCYTWNQMNL
modifications: also: TFA salt
B7: peptide ECYTWNQMNL (SEQ ID NO: 32) (peptide)
peptide: ECYTWNQMNL
modifications: also: TFA salt
B8: peptide MCYTWNQMNL (SEQ ID NO: 60) (peptide)
peptide: MCYTWNQMNL
modifications: also: TFA salt
B9: peptide TCYTWNQMNL (SEQ ID NO: 64) (peptide)
peptide: TCYTWNQMNL
modifications: also: TFA salt
B10: peptide RCYTWNQMNL (SEQ ID NO: 28) (peptide)
peptide: RCYTWNQMNL
modifications: also: TFA salt
B11: peptide PCYTWNQMNL (SEQ ID NO: 62) (peptide)
peptide: PCYTWNQMNL
modifications: also: TFA salt
B12: peptide LCYTWNQMNL (SEQ ID NO: 59) (peptide)
peptide: LCYTWNQMNL
modifications: also: TFA salt
B13: peptide ICYTWNQMNL (SEQ ID NO: 58) (peptide)
peptide: ICYTWNQMNL
modifications: also: TFA salt
B14: peptide VCYTWNQMNL (SEQ ID NO: 65) (peptide)
peptide: VCYTWNQMNL
modifications: also: TFA salt
B15: peptide QCYTWNQMNL (SEQ ID NO: 30) (peptide)
peptide: QCYTWNQMNL
modifications: also: TFA salt
B16: peptide HCYTWNQMNL (SEQ ID NO: 34) (peptide)
peptide: HCYTWNQMNL
modifications: also: TFA salt
B17: peptide FCYTWNQMNL (SEQ ID NO: 38) (peptide)
peptide: FCYTWNQMNL
modifications: also: TFA salt
B18: peptide WCYTWNQMNL (SEQ ID NO: 66) (peptide)
peptide: WCYTWNQMNL
modifications: also: TFA salt

The molecules below were run against endoplasmic reticulum aminopeptidase 1 (UniProt Q9NZ08 1-941, limits assumed) (assay: cell-based or functional assay). Conditions: not given.
Sequence of endoplasmic reticulum aminopeptidase 1 (Q9NZ08 whole entry): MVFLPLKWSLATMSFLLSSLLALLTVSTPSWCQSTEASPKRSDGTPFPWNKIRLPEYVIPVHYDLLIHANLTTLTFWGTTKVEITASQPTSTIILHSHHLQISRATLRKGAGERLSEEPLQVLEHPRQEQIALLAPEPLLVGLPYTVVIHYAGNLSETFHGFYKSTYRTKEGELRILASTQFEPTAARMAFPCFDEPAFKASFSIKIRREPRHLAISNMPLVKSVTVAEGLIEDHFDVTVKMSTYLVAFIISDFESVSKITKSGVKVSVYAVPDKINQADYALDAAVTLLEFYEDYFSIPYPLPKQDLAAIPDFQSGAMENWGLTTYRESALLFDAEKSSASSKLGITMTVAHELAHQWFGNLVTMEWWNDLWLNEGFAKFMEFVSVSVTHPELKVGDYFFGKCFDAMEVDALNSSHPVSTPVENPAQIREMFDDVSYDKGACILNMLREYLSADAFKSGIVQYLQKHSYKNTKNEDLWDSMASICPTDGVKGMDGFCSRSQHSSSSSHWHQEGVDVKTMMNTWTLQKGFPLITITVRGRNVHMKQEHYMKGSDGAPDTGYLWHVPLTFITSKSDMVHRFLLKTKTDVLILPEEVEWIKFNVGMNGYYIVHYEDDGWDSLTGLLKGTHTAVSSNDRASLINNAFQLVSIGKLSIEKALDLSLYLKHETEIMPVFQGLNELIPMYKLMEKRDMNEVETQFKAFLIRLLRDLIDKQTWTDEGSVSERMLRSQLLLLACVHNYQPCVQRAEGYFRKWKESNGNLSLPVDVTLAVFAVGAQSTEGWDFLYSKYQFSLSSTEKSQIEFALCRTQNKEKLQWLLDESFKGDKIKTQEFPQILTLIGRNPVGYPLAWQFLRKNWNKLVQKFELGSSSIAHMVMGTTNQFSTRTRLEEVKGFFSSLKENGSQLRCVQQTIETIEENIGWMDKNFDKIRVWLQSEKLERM

| Production Rate of SEQ ID NO: 4 [%] | Molecule |
| --- | --- |
| 24.6 | B1 |
| 45 | B2 |
| 35.2 | B3 |
| 20.3 | B4 |
| 10 | B5 |
| 29.1 | B6 |
| 32.5 | B7 |
| 32.1 | B8 |
| 15.6 | B9 |
| 49.2 | B10 |
| 11.1 | B11 |
| 5.8 | B12 |
| 2.8 | B13 |
| 5.1 | B14 |
| 32.5 | B15 |
| 24.4 | B16 |
| 18.4 | B17 |
| 5.2 | B18 |

Each molecule was assayed on HLA-A*24:02 transgenic mouse (assay: In vivo CTL induction in HLA-A*24:02 transgenic mouse (IFNγ ELISPOT assay of splenocytes)). Conditions: peptide 280 μg per site, intradermal Montanide ISA 51 VG emulsion, two sites; one week after administration.
Method: The HLA-A*24:02 transgenic mouse (C57BL/6CrHLA-A2402/K^b) is a mouse that expresses a chimeric HLA of a human MHC, HLA-A*24:02 with a mouse MHC, H-2K^b.
The solution was diluted with water for injection to a concentration of 10 mg/mL, and then converted to an emulsion by addition of an equal volume of Montanide ISA 51 VG. […] The concentrations of DMSO contained in emulsions were also fixed. One week after the administration, the mice were sacrificed with CO2 gas. Splenocytes were harvested from spleens removed from the mice. For detecting IFNγ-producing splenocytes, an IFNγ ELISPOT assay kit was used. In particular, an ELISPOT plate was treated with an anti-mouse-IFNγ antibody on the day before preparation of the splenocyte samples. On the next day, the plate was blocked by treatment with an RPMI 1640 medium with 10% FBS. To the blocked ELISPOT plate, the splenocyte samples from the HLA-A*24:02 transgenic mice were added at 2.5×10^5 cells/well. For in vitro stimulation of the cells, the peptide of SEQ ID NO: 4 was dissolved in DMSO at a concentration of 40 mg/ml, diluted with RPMI 1640 with 10% FBS to 40 μg/ml, and added to the splenocyte-containing wells at a final concentration of 10 μg/ml. The plate was incubated for 18-20 hours at 37° C. under an atmosphere of 5% CO2. Then, after removal of the culture medium from the wells, the ELISPOT plate was subjected to treatment for cell staining in accordance with the manufacturer's protocol. Stained spots were counted on ImmunoSpot S6 Analyzer (C.T.L.). […]

| Molecule | induction of CTLs responsive to the peptide of SEQ ID NO: 4 (IFNγ-producing splenocytes) |
| --- | --- |
| ECYTWNQMNL [SEQ ID NO: 32] | induced CTLs responsive to the peptide of SEQ ID NO: 4 |
| FCYTWNQMNL [SEQ ID NO: 38] | induced CTLs responsive to the peptide of SEQ ID NO: 4 |
| HCYTWNQMNL [SEQ ID NO: 34] | induced CTLs responsive to the peptide of SEQ ID NO: 4 |
| KCYTWNQMNL [SEQ ID NO: 36] | induced CTLs responsive to the peptide of SEQ ID NO: 4 |
| QCYTWNQMNL [SEQ ID NO: 30] | induced CTLs responsive to the peptide of SEQ ID NO: 4 |
| RCYTWNQMNL [SEQ ID NO: 28] | induced CTLs responsive to the peptide of SEQ ID NO: 4 |
| YCYTWNQMNL [SEQ ID NO: 40] | induced CTLs responsive to the peptide of SEQ ID NO: 4 |
